# Test results as given in article doi:10.1101/2023.01.09.523197.
# B1: amtB+2Cy3 (dsDNA)
# DNA 1: GCCCCGGCCGTTCACCCACGCGTAACACGCACCGTGCCTTCGTCACGGCGGCGAAACAACGAGGGGCTTCCACCGAAACCGCGCTGCGTCAATGTCGTGGCGCATAACCGGCCCACCCCT
# DNA 2: AGGGGTGGGCCGGTTATGCGCCACGACATTGACGCAGCGCGGTTTCGGTGGAAGCCCCTCGTTGTTTCGCCGCCGTGACGAAGGCACGGTGCGTGTTACGCGTGGGTGAACGGCCGGGGC
# Molecular target: GlnR147-Alexa647;RNAP holoenzyme (Mycobacterium …, UniProt O53830;P9WGZ1;P9WGY9;P9WGY7;P9WGY5;P9WGI1 1-255;1-347;1-1178;1-1316;1-110;1-528, C61S;L148C|)
# Assay: […], SEC in 20 mM Tris-HCl pH 8.0, 75 mM NaCl, 5 mM MgCl2
binder,measurement,value
B1,binding result,binds
